In US6949366 (Amgen, dated 2005):
Each block holds one binder with its values, some of them ahead of it.

What was measured:
[1] = target: T1, soluble rat elk/Fc fusion protein (rat; human, UniProt P09759 18-540; P01857 99-330 = IgG part, limits assumed); experiment: indirect Scatchard binding: elk/Fc titrated on CV1-EBNA-1 cells expressing elk-L, detected with 125I mouse anti-human IgG
T1 construct: extracellular domain;domain: Fc region; The junction between elk and Fc is not described

[2] = target: T1, soluble rat elk/Fc fusion protein; experiment: indirect Scatchard binding: elk/Fc titrated on CV1-EBNA-1 cells expressing hek-L C6, detected with 125I mouse anti-human IgG; biphasic, first component
[3] = target: T1, soluble rat elk/Fc fusion protein; experiment: indirect Scatchard binding: elk/Fc titrated on CV1-EBNA-1 cells expressing hek-L C6, detected with 125I mouse anti-human IgG; biphasic, second component
[4] = target: T1, soluble rat elk/Fc fusion protein; experiment: indirect Scatchard binding: elk/Fc titrated on CV1-EBNA-1 cells expressing B61, detected with 125I mouse anti-human IgG; biphasic, second component
[5] = target: T1, soluble rat elk/Fc fusion protein; experiment: indirect Scatchard binding: elk/Fc titrated on CV1-EBNA-1 cells expressing B61; biphasic, first component as the text prints it (differs from the table's cell)
[6] = target: T1, soluble rat elk/Fc fusion protein; experiment: indirect Scatchard binding: elk/Fc titrated on CV1-EBNA-1 cells expressing B61, detected with 125I mouse anti-human IgG; biphasic, first component (the cell prints 23, the text at paragraph 137 prints 2.3)
[7] = target: T1, soluble rat elk/Fc fusion protein; experiment: indirect Scatchard binding: elk/Fc titrated on CV1-EBNA-1 cells expressing hek-L A2, detected with 125I mouse anti-human IgG; biphasic, first component
[8] = target: T1, soluble rat elk/Fc fusion protein; experiment: indirect Scatchard binding: elk/Fc titrated on CV1-EBNA-1 cells expressing hek-L A2, detected with 125I mouse anti-human IgG; biphasic, second component

T1 sequence (P09759 other isoform, or with tags, fused parts or gaps limits assumed): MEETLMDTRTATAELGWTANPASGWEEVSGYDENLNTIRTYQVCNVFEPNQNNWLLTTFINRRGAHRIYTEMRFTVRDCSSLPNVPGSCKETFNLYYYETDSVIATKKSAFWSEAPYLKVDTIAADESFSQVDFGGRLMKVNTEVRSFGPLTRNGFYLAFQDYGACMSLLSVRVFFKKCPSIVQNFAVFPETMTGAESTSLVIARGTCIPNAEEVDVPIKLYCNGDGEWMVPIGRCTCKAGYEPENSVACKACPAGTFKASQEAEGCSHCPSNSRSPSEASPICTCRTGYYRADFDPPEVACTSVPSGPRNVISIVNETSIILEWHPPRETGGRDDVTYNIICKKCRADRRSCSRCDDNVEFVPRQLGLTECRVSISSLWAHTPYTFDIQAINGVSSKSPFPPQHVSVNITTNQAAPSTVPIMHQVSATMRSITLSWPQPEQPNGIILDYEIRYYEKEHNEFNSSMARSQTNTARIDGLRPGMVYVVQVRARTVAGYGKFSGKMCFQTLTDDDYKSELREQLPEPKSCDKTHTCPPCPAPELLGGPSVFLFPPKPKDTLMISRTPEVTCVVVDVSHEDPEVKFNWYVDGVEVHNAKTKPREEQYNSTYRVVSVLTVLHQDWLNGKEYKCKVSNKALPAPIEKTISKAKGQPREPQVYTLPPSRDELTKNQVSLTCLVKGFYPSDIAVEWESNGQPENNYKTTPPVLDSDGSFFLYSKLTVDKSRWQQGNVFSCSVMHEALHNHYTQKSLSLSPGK

B1: human elk ligand (ligand, UniProt P98172 28-346, looked up)
chain: LAKNLEPVSWSSLNPKFLSGKGLVIYPKIGDKLDIICPRAEAGRPYEYYKLYLVRPEQAAACSTVLDPNVLVTCNRPEQEIRFTIKFQEFSPNYMGLEFKKHHDYYITSTSNGSLEGLENREGGVCRTRTMKIIMKVGQDPNAVTPEQLTTSRPSKEADNTVKMATQAPGSRGSLGDSDGKHETVNQEEKSGPGASGGSSGDPDGFFNSKVALFAAVGAGCVIFLLIIIFLTVLLLKLRKRHRKHTQQRAAALSLSTLASPKGGSGTAGTEPSDIIIPLRTTENNYCPHYEKVSGDYGHPVYIVQEMPPQSPANIYYKV
notes: whole, on cells
Ka [1]: 1.08e+09 M⁻¹

B3: human B61 (ligand, UniProt P20827 19-182, looked up)
chain: DRHTVFWNSSNPKFRNEDYTIHVQLNDYVDIICPHYEDHSVADAAMEQYILYLVEHEEYQLCQPQSKDQVRWQCNRPSAKHGPEKLSEKFQRFTPFTLGKEFKEGHSYYYISKPIHQHEDRCLRLKVTVSGKITHSPQAHDNPQEKRLAADDPEVRVLHSIGHS
notes: whole, on cells
Ka [4]: 7e+07 M⁻¹
Ka [5]: 2.3e+08 M⁻¹
Ka [6]: 2.3e+09 M⁻¹

Further lines, results first:

Ka [2]: 1.3e+08 M⁻¹
Ka [3]: 5.4e+07 M⁻¹
B2: human hek ligand encoded by clone C6 (ligand)
chain: GSSLRHVVYWNSSNPRLLRGDAVVELGLNDYLDIVCPHYEGPGPPEGPETFALYMVDWPGYESCQAEGPRAYKRWVCSLPFGHVQFSEKIQRFTPFSLGFEFLPGETYYYISVPTPESSGQCLRLQVSVCCKERKSESAHPVGSPGES
modifications: GPI anchor at the C-terminus after cleavage (likely on Ser 148 in the filing's numbering; site not determined)
notes: Expressed from the full-length clone C6 cDNA in pDC410 on CV1-EBNA-1 cells and held on the membrane by a GPI anchor; also called hek-L C6; hek ligand C6

Ka [7]: 2.7e+08 M⁻¹
Ka [8]: 3.5e+07 M⁻¹
B4: human hek ligand encoded by clone A2 (ligand)
chain: LLAQGPGGALGNRHAVYWNSSNQHLRREGYTVQVNVNDYLDIYCPHYNSSGVGPGAGPGPGGGAEQYVLYMVSRNGYRTCNASQGFKRWECNRPHAPHSPIKFSEKFQRYSAFSLGYEFHAGHEYYYISTPTHNLHWKCLRMKVFVCCASTSHSGEKPVPTLPQFTMGPNVKINVLEDFEGENPQVPKLEKSIS
modifications: GPI anchor at the C-terminus after cleavage (likely on Ser 194 in the filing's numbering; site not determined)
notes: Expressed from the full-length clone A2 cDNA in pDC410 on CV1-EBNA-1 cells and held on the membrane by a GPI anchor; also called hek-L A2; hek ligand A2
